We go through two molecules from patent publication US10251926B2, “Extract from indigo naturalis and a process for preparing the same” (Galderma S.A., priority 2015, dated 2019).

The test system of one test is HaCaT. Kind of test: HaCaT proliferation, MTT assay. It is filed as cell-based. To be noted: Homo sapiens, 72 hours, unit nM. (In general: Formazan colour is commonly taken as a measure of viable cells.)
Another test relates to ears of mice. Kind of test: Ear inflammation after intradermal injection of IL-22 (study 1, establishment of model). Format: in vivo, BABL/c mice. As for the experimental part:
FIG. 3: Group and dosing for in vivo evaluation of extracts from Qingdai in IL-22 induced psoriasis model. Five studies were designed and outlined in study 1-5, respectively. In Study 1, 100 ng and 500 ng of IL-22 in 20 μL saline, i.d., were used for induction. In study 2-5, 500 ng of IL-22 in […], i.d., were used for induction.
FIG. 4: Figures illustrate ear inflammation after intradermal injection of IL-22. In the studies, ears of mice were injected intradermally and ear thickness was measured on days between injections.
BABL/c mice, male, body weight 19-22 g, purchased from Shanghai SLC AnimalCenter.
Intradermal injection of 20 μL PBS, either alone or containing 100 or 500 ng recombinant mouse IL-22 (eBiosience), was administered into the ears of anesthetized mice using a 30-gauge needle every other day for eleven days. Ear thicknesses were measured before injection on day 0 and thereafter on days without injections. Ear measurements were taken at the center of the ears using a digimatic micrometer caliper (Mitutoyo).
Results of ear thickness data were expressed as mean±S.E.M. AUC of ear swelling was calculated by the ear thickness data from day 0 to day 11, and analyzed by repeated-measured ANOVA methods with JMP® software. Cytokine protein and gene expression data were evaluated with a one-way ANOVA and followed by student's t-test for post-hoc analysis. […]

Procedure for HaCaT: HaCaT, a human epidermal keratinocyte line from The Second Military Medical University (SMMU), China, was cultured in DMEM containing 10% FBS.
HaCaT were seeded in 96-well plates at 4×10^4 cells/well overnight. Stausporine or test articles were then added into the culture and incubated at 37° C., 5% CO2 for 72 hours. After removal of the media, the cells in 96-well plates were exposed to 100 μL of MTT (0.5 mg/mL in DMEM containing 10% FBS per well and incubated for 3 hours at 37° C., 5% CO2. Subsequently, the supernatants were removed and 150 μL of DMSO were added to each well. The plate was incubated in the dark for 10 minutes and the absorbance at 492 nm was recorded immediately using Multiskan MK3microplate reader (Thermo Life Sciences, HK, China).
All IC50 values were determined by using Xlfit™ software (version 2.0) from ID
Background was defined in culture with cells treated with DMSO only and was subtracted for IC50 calculations.

As for `CN[C@@H]1C[C@H]2O[C@@](C)([C@@H]1OC)n1c3ccccc3c3c4c(c5c6ccccc6n2c5c31)C(=O)NC4` [Staurosporine], in the test with HaCaT, the IC50 – broadly, the concentration needed to halve the response being measured – was 3.18 nM.

B1: IL-22: Recombinant mouse IL-22, intradermal inducer of ear inflammation (protein, UniProt Q9JJY9 34-179, looked up)
Interleukin-22: LPVNTRCKLEVSNFQQPYIVNRTFMLAKEASLADNNTDVRLIGEKLFRGVSAKDQCYLMKQVLNFTLEDVLLPQSDRFQPYMQEVVPFLTKLSNQLSSCHISGDDQNIQKNVRRLKETVKKLGESGEIKAIGELDLLFMSLRNACV
Regarding B1, the “ear thickness (d 15)” value was 255.3 ± 15.1 μm in the test with ears of mice (study 1, IL-22 100 ng in 20 μL saline i.d., day 15) and 296.3 ± 5.0 μm in the test with ears of mice (study 1, IL-22 500 ng in 20 μL saline i.d., second value of the cell, day 15 as in the lines above).
